Results reported in patent US20210324080A1 (JIANGSU HUAIYU PHARMACEUTICAL, published 2021).
Changes are numbered by the printed parent chain.

T1: CTLA-4-hFc (immunogen A; hFc-labeled CTLA-4 extracellular domain protein) (human, UniProt P16410 36-161)
T1 construct: range 36-161; Made in HEK293 cells, purified on protein A; also called CLTA-4-hFc; CTLA-4 protein; not shown: human IgG Fc fragment (hFc) of the pCpC vector
T1 sequence (looked up): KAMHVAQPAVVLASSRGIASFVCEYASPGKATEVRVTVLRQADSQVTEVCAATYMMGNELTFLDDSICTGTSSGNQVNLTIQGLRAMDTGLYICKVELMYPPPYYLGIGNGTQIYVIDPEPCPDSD

T2: recombinant His-labeled hCTLA-4 ECD protein (human, UniProt P16410 36-161)
T2 construct: extracellular domain; also called human CTLA-4 ECD; not shown: His label
T2 sequence (looked up): T1 sequence (looked up)

B1: 40C4C6 fully human CTLA-4 antibody (human IgG1, kappa) (antibody, V domains shown)
VH: QVQLVESGGGVVQPGRSLRLSCAASGFTFSSYGMHWVRQAPGKGLEWVAVIWYDGRNKYYADSVKGRFTISRDNSKNTLYLQMNSLRAEDTAVYYCARASGSYSYYFDYWGQGTLVTVSS
VL: DIQMTQSPSSLSASVGGRVTITCRASQSISSFLNWYQHELGKAPKLLIYGASSLQSGVPSRFSGSGSGTDFTLTISSLQPEDFATYYCQQTYSTPFTFGPGTKVDIK
notes: also called mAb09; mAb009
B2: 31C12F3 fully human CTLA-4 antibody (human IgG1, kappa) (antibody, V domains shown)
VH: QVQLVESGGGVVQPGRSLILSCAASGFTFSSYGMHWVRQAPGKGLEWVAVVWYDGSNKYYADSVKGRFTISRDNSKNTLYLQMSSLRAEDTAVYYCARGGIVVPGLFEYWGQGSLVTVSS
VL: DIQMTQSPSSLSASVGDRVAITCRTSQSISNLLNWYQQKPGKAPELLIYAPSSFQSGVPSRFRGSGSGTDFTLTISSLQPEDFATYYCQQSYSTPFTFGPGTKVDIK
notes: also called mAb010
B3: 92C8B6 fully human CTLA-4 antibody (human IgG1, kappa) (antibody, V domains shown)
VH: QVQLVESGGGVVQPGRSLRLSCAASGFTFSNFGMHWVRQAPGKGLEWVAVIWYDGSNKYYADSVKGRFTISRDNSKNTLFLQMNGLRAEDTAVYYCAKGGILMAGTLDYWGQGTLVTVSS
VL: B2 VL with A20T, T25A, I29V, N31T, L32Y, E45K, P51A, R63S, Y87F
notes: also called mAb42; mAb042
B4: 97A8D1 fully human CTLA-4 antibody (human IgG1, kappa) (antibody, V domains shown)
VH: QVQLVESGGGVVQPGRSLRLSCVASGFTFNNYGMNWVRQAPGKGLEWVAVIWYGGRNKFYADSVKGRFTISRDNSKNTLYLEMNSLRAEDTAVYYCARADWGGWFDPWGQGTLVTVSS
VL: EIVLTQSPGTLSLSPGERATLSCRASQSVSSTYLAWYQQKPGQAPRLLIHGAFSRATGIPDRFSGSGSGPDFTLTISRLEPEDFAVYYCQQYGTSPFTFGPGTKVDIK
notes: also called mAb49; mAb049

target: T3, monkey CTLA-4, full length, on transfected HEK293 cells (monkey); assay: FACS, monkey CTLA-4 expressing cells
T3 construct: whole, on cells; also called cCTLA-4; HEK293-cCTLA-4
Source text: The pIRES plasmid with the monkey-derived CTLA-4 full-length gene was transfected into the HEK293 cell line to construct a HEK293 stable cell line containing monkey CTLA-4 (herein referred to as HEK293-cCTLA-4 stable cell line), wherein the database accession number of the monkey CTLA-4 nucleotide sequence is XM_005574014.1. The HEK293-hCTLA-4 stable cell line and HEK293-cCTLA-4 stable cell line were expanded in a T-75 cell culture flask to a 90% confluence. The medium was aspirated, and the cells were washed with HBSS buffer (Hanks Balanced Salt Solution, purchased from Invitrogen) twice, then treated with an enzyme-free cell dissociation fluid (Versene solution, purchased from Life technology) and the cells were collected. The cells were washed with HBSS buffer twice. After counted, the cells were diluted with HBSS buffer to 2×10⁶ cells per ml, added with 1% goat serum blocking solution, wherein the percentage was the mass percantage. Cells were incubated on ice for 30 minutes, then washed twice with HBSS buffer by centrifugation. The collected cells were suspended in the FACS buffer (HBSS containing 1% BSA, wherein the percentage was the mass percantage) to 2×10⁶ cells/ml, added as 100 microliters per well to a 96-well FACS reaction plate, added with 100 microliters per well of the purified CTLA-4 antibody sample to be tested, incubated on ice for 2 hours. The plate was washed twice with the FACS buffer by centrifugation, added with 100 microliters of fluorescent (Alexa 488)-labeled secondary antibodies (purchased from Invitrogen) per well, and incubated on ice for 1 hour. The plate was washed 3 times with FACS buffer by centrifugation, added with 100 μl fixative solution [4% (v/v) Paraformaldehyde] per well to suspend the cells. 10 minutes later, it was washed 2 times with FACS buffer by centrifugation. The cells were suspended with 100 microliters of FACS buffer, FACS (FACS Calibur, purchased from BD) was used for detection and the results were analyzed.

Binder	MFI at 0.000128 nM	MFI at 0.0128 nM	MFI at 0.064 nM	MFI at 0.32 nM	MFI at 1.6 nM	MFI at 8 nM	MFI at 40 nM	MFI at 200 nM
B1	2	23	69	219	421	619	626	643
B2	2	34	98	261	455	654	712	668
B3	2	22	68	208	465	722	800	711
B4	2	23	67	225	513	754	910	831

target: T1, CTLA-4-hFc (immunogen A; hFc-labeled …); assay: receptor-ligand blocking assay: CTLA-4 protein, antibody titrated, blocked ligand B7.1, inhibition (%)
Procedure: (§1) CTLA-4 extracellular domain protein (CTLA-4-hFc) was diluted with PBS to a final concentration of 1.0 μg/mL, and then added to a 96-well ELISA plate as 100 μl per well. The plate was covered with a plastic film and incubated overnight at 4° C. The plate was washed twice with plate washing solution [PBS containing 0.01% (v/v) Tween 20] on the next day, and added with blocking solution [PBS containing 0.01% (v/v) Tween 20 and 1% (w/w) BSA] and blocked at room temperature for 2 hours. […] After 2 hours, the plate was washed 3 times with a plate washing solution [PBS containing 0.01% (v/v) Tween 20]. HRP (horseradish peroxidase) labeled avidin diluent (purchased from Sigma) was added 100 microliters per well, and after the plate was incubated for 2 hours at 37° C., it was washed with plate washing solution [PBS containing 0.01% (v/v) Tween 20] for 3 times. […] TMB substrate was added to each well. After incubated at room temperature for 30 minutes, the plate was added with […] stop solution (1.0N HCl) to each well. An ELISA plate reader (SpectraMax 384plus, Molecular Device) was used to read the A450 nm value.

Binder	IC50 (read off the curve) [nM]
B1	~1
B2	~1
B3	~2

target: T1, CTLA-4-hFc (immunogen A; hFc-labeled …); assay: blocking assay, CTLA-4 protein, competitor B7.2
Procedure: as §1

Binder	% Block at 0.000128 nM [%]	% Block at 0.0128 nM [%]	% Block at 0.064 nM [%]	% Block at 0.32 nM [%]	% Block at 1.6 nM [%]	% Block at 8 nM [%]	% Block at 40 nM [%]	% Block at 200 nM [%]
B1	0	30	52.4	89.2	99.1	99.1	99.1	99.1
B2	0	25.6	48.1	84.4	99	99.1	99.1	99.2
B3	0	25	36.7	78.5	98.7	99.2	99.2	99.2
B4	0	33	48.4	84.1	99	99.2	99.2	99.2

target: T2, recombinant His-labeled hCTLA-4 ECD …; assay: SPR Biacore T200, antibody captured by anti-human Fc, 1:1 model
Procedure: Anti-human Fc IgG was fixed on flow cell 1 and 2. HBS-EP+ (10 mmol/L HEPES, 150 mmol/L NaCl, 3 mM EDTA, 0.05% P20, pH 7.4) was used as the running buffer, and anti-human Fc IgG was fixed using the fixing wizard template. The flow cells 1 and 2 connected in series with S CM5 sensor chip were activated with freshly mixed 50 mmol/L NHS and 200 mmol/L EDC. Anti-human Fc IgG was diluted to […] with 10 mmol/L NaAC (pH 4.5) and injected into activated flow cells 1 and 2. The remaining active coupling sites were blocked with 1 mol/L ethanolamine.
The recombinant His-labeled hCTLA-4 ECD protein was diluted to 50 nmol/L, and then serially diluted 4 times with HBS-EP+ buffer at a 2-fold ratio. […] Each antibody was injected into the CM5 sensor flow cell 2 at a flow rate of 10 μL/min to achieve a response of 230 RU. Then the prepared His-labeled hCTLA-4ECD protein was injected into flow cells 1 and 2 at a flow rate of 30 μL/min for 180 seconds. The buffer flow was maintained for 400 seconds for dissociation measurement (30 μL/min). To remove the tested antibody from the surface, 10 mmol/L glycine-HCl pH1.5 was injected for 20 seconds (30 μL/min). Flow cell 1 was used as a reference flow cell. The above steps were repeated for each concentration of serially diluted His-labeled CTLA-4ECD protein. The KD value of each antibody was evaluated using Biacore T200 evaluation software 1.0, and a 1:1 binding model was used to fit the data.

Binder	Kd [nM]	koff [s⁻¹]	kon [M⁻¹ s⁻¹]
B1	2.36	0.0017	720000
B2	2.62	0.00118	450000
B3	2.52	0.00187	744000
B4	2.15	0.00087	405000
